For assay [1], the target named is CH505TF4.1 SOSIP Trimer (HV1301189, CH505TF.6R.SOSIP.664.v4.1) (HIV-1). As to the kind of experiment: SPR antibody binding; drug substance of the 200 L scale run 1.
The target is the same in assay [2]. Description: SPR antibody binding; drug substance of the 200 L scale run 2.
Assay [3] shares this target. Description: SPR antibody binding; drug substance of the 50 L scale run.

Broadly, the Kd is the constant that tells how readily two partners part at equilibrium. Lower therefore signals a tighter complex. For the substance PGT151 (antibody), the Kd in assay [1] came out at 0.016 µM; in assay [2], 0.0131 µM; in assay [3], 0.0175 µM.

For the substance PGT145 (antibody), the results for the Kd in assay [1], in assay [2] and in assay [3] were 0.0113 µM, 0.0117 µM and 0.011 µM, respectively.

The record behind these values is patent US20220041650A1.
